Consider 2 molecules from PMC4822050.

Series [1] has as its target T1, SRA-Spacer (human, UniProt Q96T88 414-674).
T1 sequence: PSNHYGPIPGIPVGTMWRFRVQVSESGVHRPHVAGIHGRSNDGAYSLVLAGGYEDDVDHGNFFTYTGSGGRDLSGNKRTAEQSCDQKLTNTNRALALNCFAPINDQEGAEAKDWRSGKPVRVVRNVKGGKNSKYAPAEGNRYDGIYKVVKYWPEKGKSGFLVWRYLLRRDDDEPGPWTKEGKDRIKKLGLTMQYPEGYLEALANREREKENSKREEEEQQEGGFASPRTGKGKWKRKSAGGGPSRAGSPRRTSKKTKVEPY
In words: X-ray crystallography; 3.15 A; Spacer residues 617-674 not built; ITC: 10 mM HEPES pH 8.0, 100 mM NaCl, 18 C; EMSA: 20 mM HEPES pH 7.5, 100 mM NaCl, 8% glycerol, 1 mM DTT, on ice; pull-down: 20 mM HEPES-NaOH pH 8.0, 100 mM NaC. A general note: Mobility shift assays separate free from complexed probe on a gel.

Series [2] deals with T2, UHRF1 full-length (human, UniProt Q96T88 1-793).
T2 sequence: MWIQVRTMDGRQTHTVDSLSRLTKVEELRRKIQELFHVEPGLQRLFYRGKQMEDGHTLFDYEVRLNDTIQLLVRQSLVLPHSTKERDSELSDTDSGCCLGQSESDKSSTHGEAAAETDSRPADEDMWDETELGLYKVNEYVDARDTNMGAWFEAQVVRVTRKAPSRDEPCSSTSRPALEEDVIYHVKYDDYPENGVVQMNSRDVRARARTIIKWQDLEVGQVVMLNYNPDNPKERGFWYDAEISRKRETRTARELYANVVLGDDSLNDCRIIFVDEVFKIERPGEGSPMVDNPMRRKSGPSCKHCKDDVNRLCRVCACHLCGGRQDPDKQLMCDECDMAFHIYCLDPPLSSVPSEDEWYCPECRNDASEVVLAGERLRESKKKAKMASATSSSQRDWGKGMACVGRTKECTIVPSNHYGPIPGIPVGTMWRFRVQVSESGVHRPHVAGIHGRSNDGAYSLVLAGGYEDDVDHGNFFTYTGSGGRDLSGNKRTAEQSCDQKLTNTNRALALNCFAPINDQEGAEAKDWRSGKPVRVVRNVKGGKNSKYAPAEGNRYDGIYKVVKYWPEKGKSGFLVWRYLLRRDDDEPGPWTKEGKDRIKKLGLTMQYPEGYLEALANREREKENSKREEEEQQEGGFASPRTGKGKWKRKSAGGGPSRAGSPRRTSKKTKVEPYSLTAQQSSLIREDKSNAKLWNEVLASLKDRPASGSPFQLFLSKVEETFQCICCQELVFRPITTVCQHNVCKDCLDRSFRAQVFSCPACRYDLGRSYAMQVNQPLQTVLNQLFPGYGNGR
In words: pull-down; H3 (1-17) peptide; affinity not affected; ITC: 10 mM HEPES pH 8.0, 100 mM NaCl, 18 C; EMSA: 20 mM HEPES pH 7.5, 100 mM NaCl, 8% glycerol, 1 mM DTT, on ice; pull-down: 20 mM HEPES-NaOH pH 8.0, 100 mM NaC.

B1: 18-bp hm-DNA (crystal) (dsDNA)
DNA 1: CATCGTCCCTGCGGGCCC
DNA 2: GGGCCCGCAGGGACGATG
modifications: 5-methyl-dC at position 6 of strand 2 (GGGCCXGCAGGGACGATG)
In the case of B1, in series [1], the binding result is “binds”.

B2: biotin-hm-DNA 12 bp (pull-down) (dsDNA)
DNA 1: GAGGCCGCCTGC
DNA 2: GCAGGCGGCCTC
modifications: 5-methyl-dC at position 6 of strand 1 (GAGGCXGCCTGC)
For B2, the binding result in series [2] was “binds”.
